Assay results from patent US20250026849A1 (ARCELLX, published 2025).

T1: CD123 (Homo sapiens (Human), UniProt P26951 19-305, limits assumed)
T1 construct: The CD123 construct used in the ELISA is not described; also called CD123-Signal
T1 sequence: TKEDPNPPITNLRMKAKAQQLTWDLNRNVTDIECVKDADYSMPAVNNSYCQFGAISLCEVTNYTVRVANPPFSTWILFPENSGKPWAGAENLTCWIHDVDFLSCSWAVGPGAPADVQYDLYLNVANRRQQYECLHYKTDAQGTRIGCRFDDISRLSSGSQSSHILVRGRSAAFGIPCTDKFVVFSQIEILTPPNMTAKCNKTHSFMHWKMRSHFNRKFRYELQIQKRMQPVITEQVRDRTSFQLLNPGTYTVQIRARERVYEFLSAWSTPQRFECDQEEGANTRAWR


Target: T1, CD123
Experiment: ELISA
Parameters: unit not given here

ELISA_avg | Binder
7.5 | D domain of SEQ ID NO: 356 (designed binder) MGSWTEFYYRLEAIEDRLWALGGSEAELAAFEKEIAAFESELQAYKGKGNPEVEFLRVEAANIRDMLQAYRHN
9.1 | D domain of SEQ ID NO: 442 (designed binder) MGSWVEFHMRLDAIYERLDALGGSEAELAAFEKEIAAFESELQAYKGKGNPEVEWLRTAAANIRVELQAYRHN
16 | D domain of SEQ ID NO: 440 (designed binder) MGSWTEFYVRLDAIYERLDALGGSEAELAAFEKEIAAFESELQAYKGKGNPEVEWLRMVAANIRTELQAYRHN
14.7 | D domain of SEQ ID NO: 445 (designed binder) MGSWSEFYVRVDAIYARLSALGGSEAELAAFEKEIAAFESELQAYKGKGNPEVEKLRVWAANIRHELQAYRHN
14.4 | D domain of SEQ ID NO: 441 (designed binder) MGSWVEFYTRLDAIYGRLDALGGSEAELAAFEKEIAAFESELQAYKGKGNPEVEWLRQVAANIRMELQAYRHN
13.7 | D domain of SEQ ID NO: 435 (designed binder) MGSWSEFNMRLDAIYERLTALGGSEAELAAFEKEIAAFESELQAYKGKGNPEVEWLRHSAARIRLELQAYRHN
11.4 | D domain of SEQ ID NO: 437 (designed binder) MGSWIEFNMRLDAIYERLVALGGSEAELAAFEKEIAAFESELQAYKGKGNPEVEWLRKVAANIRLELQAYRHN
6.4 | D domain of SEQ ID NO: 357 (designed binder) MGSWYEFVIRLEAIEDRLWALGGSEAELAAFEKEIAAFESELQAYKGKGNPEVEVLRWYAADIRHELQAYRHN
14.4 | D domain of SEQ ID NO: 446 (designed binder) MGSWSEFHVRLDAIYARLDALGGSEAELAAFEKEIAAFESELQAYKGKGNPEVERLREWAANIRRELQAYRHN
11.4 | D domain of SEQ ID NO: 436 (designed binder) MGSWSEFNMRLDAIYERLTALGGSEAELAAFEKEIAAFESELQAYKGKGNPEVEWLRHSAALIRLELQAYRHN
16.6 | D domain of SEQ ID NO: 444 (designed binder) MGSWNEFVIRLDAIYERLLALGGSEAELAAFEKEIAAFESELQAYKGKGNPEVEYLRMAAANIRMELQAYRHN
11.9 | D domain of SEQ ID NO: 358 (designed binder) MGSWTEFSIRLEAIYDRLVALGGSEAELAAFEKEIAAFESELQAYKGKGNPEVEVLRTYAANIRHELQAYRHN
11.9 | D domain of SEQ ID NO: 438 (designed binder) MGSWYEFHHRLDAIYERLLALGGSEAELAAFEKEIAAFESELQAYKGKGNPEVEWLRSSAANIRKELQAYRHN
10.2 | D domain of SEQ ID NO: 359 (designed binder) MGSWTEFSIRLEAIYDRLVALGGSEAELAAFEKEIAAFESELQAYKGKGNPEVEVLRTYAAFIRHELQAYRHN
15.3 | D domain of SEQ ID NO: 439 (designed binder) MGSWYEFAKRLDAIYERLVALGGSEAELAAFEKEIAAFESELQAYKGKGNPEVEWLRSSAANIREELQAYRHN
25.5 | D domain of SEQ ID NO: 443 (designed binder) MGSWYEFAIRLDAIYERLHALGGSEAELAAFEKEIAAFESELQAYKGKGNPEVEYLRVWAANIRTELQAYRHN
17.5 | D domain of SEQ ID NO: 447 (designed binder) MGSWVEFHLRLDAIYGRLMALGGSEAELAAFEKEIAAFESELQAYKGKGNPEVENLRVWAANIRNELQAYRHN
3.2 | D domain of SEQ ID NO: 351 (designed binder) MGSWVEFWFRLEAIDSRLWALGGSEAELAAFEKEIAAFESELQAYKGKGNPEVEWLREEAAAIREDLQAYRHN
3.5 | D domain of SEQ ID NO: 414 (designed binder) MGSWFEFHDRLWAIDERLWALGGSEAELAAFEKEIAAFESELQAYKGKGNPEVEILREEAADIRLDLQAYRHN
9.7 | D domain of SEQ ID NO: 403 (designed binder) MGSWYEFWDRLDALEDRLWALGGSEAELAAFEKEIAAFESELQAYKGKGNPEVEYLRDSAAFIREELQAYRHN
3.2 | D domain of SEQ ID NO: 430 (designed binder) MGSWMEFEERLWAIDSRLWALGGSEAELAAFEKEIAAFESELQAYKGKGNPEVEWLRSEAAWIRMELQAYRHN
7.5 | D domain of SEQ ID NO: 363 (designed binder) MGSWIEFYDRLEAIYDRLDALGGSEAELAAFEKEIAAFESELQAYKGKGNPEVEWLREDAAFIRSWLQAYRHN

ELISA_avg | Binder
3.3 | D domain of SEQ ID NO: 396 (designed binder) MGSWVEFDMRLSAIWERLIALGGSEAELAAFEKEIAAFESELQAYKGKGNPEVEWLREDAAEIREFLQAYRHN
5.1 | D domain of SEQ ID NO: 364 (designed binder) MGSWVEFDQRLEAIYDRLYALGGSEAELAAFEKEIAAFESELQAYKGKGNPEVEWLREDAAQIRKWLQAYRHN
6 | D domain of SEQ ID NO: 405 (designed binder) MGSWDEFVDRLWAIEERLWALGGSEAELAAFEKEIAAFESELQAYKGKGNPEVEELRIQAAIIREALQAYRHN
4.7 | D domain of SEQ ID NO: 353 (designed binder) MGSWSEFWQRLEAIEDRLWALGGSEAELAAFEKEIAAFESELQAYKGKGNPEVEWLRENAAMIRDELQAYRHN
10.5 | D domain of SEQ ID NO: 397 (designed binder) MGSWVEFDQRLDAIYERLYALGGSEAELAAFEKEIAAFESELQAYKGKGNPEVEWLRDEAAEIREHLQAYRHN
6.2 | D domain of SEQ ID NO: 350 (designed binder) MGSWAEFEDRLWAIEDRLWALGGSEAELAAFEKEIAAFESELQAYKGKGNPEVEYLREEAAAIRFELQAYRHN
3.3 | D domain of SEQ ID NO: 354 (designed binder) MGSWSEFITRLEAIDDRLWALGGSEAELAAFEKEIAAFESELQAYKGKGNPEVEILREEAAEIRQHLQAYRHN
3.2 | D domain of SEQ ID NO: 355 (designed binder) MGSWYEFETRLEAIYDRLWALGGSEAELAAFEKEIAAFESELQAYKGKGNPEVELLRVEAAEIREDLQAYRHN
3.2 | D domain of SEQ ID NO: 416 (designed binder) MGSWFEFQDRLWAIDNRLWALGGSEAELAAFEKEIAAFESELQAYKGKGNPEVEELRDHAAMIRWELQAYRHN
5.8 | D domain of SEQ ID NO: 349 (designed binder) MGSWTEFHDRLEAIDDRLWALGGSEAELAAFEKEIAAFESELQAYKGKGNPEVEYLREEAAQIRWELQAYRHN
5.8 | D domain of SEQ ID NO: 404 (designed binder) MGSWMEFVDRLDAIESRLWALGGSEAELAAFEKEIAAFESELQAYKGKGNPEVEWLRIEAAFIREELQAYRHN
3.3 | D domain of SEQ ID NO: 365 (designed binder) MGSWVEFHDRLEAIEDRLLALGGSEAELAAFEKEIAAFESELQAYKGKGNPEVEDLREYAAGIRWFLQAYRHN
4.9 | D domain of SEQ ID NO: 415 (designed binder) MGSWYEFEDRLWAIDNRLWALGGSEAELAAFEKEIAAFESELQAYKGKGNPEVEELRVHAADIRDDLQAYRHN
3.7 | D domain of SEQ ID NO: 361 (designed binder) MGSWVEFHERLEAIEDRLMALGGSEAELAAFEKEIAAFESELQAYKGKGNPEVEYLREDAAFIRQLLQAYRHN
9.4 | D domain of SEQ ID NO: 400 (designed binder) MGSWVEFYSRLDAIEDRLWALGGSEAELAAFEKEIAAFESELQAYKGKGNPEVEWLRIAAASIREDLQAYRHN
4.2 | D domain of SEQ ID NO: 402 (designed binder) MGSWFEFDDRLWAIENRLWALGGSEAELAAFEKEIAAFESELQAYKGKGNPEVEVLRDNAAWIREILQAYRHN
4.6 | D domain of SEQ ID NO: 362 (designed binder) MGSWVEFHDRLEAIEDRLYALGGSEAELAAFEKEIAAFESELQAYKGKGNPEVEWLREDAAYIRSILQAYRHN
7.7 | D domain of SEQ ID NO: 352 (designed binder) MGSWVEFWQRLEAIESRLWALGGSEAELAAFEKEIAAFESELQAYKGKGNPEVEFLREEAAEIRWELQAYRHN
10.3 | D domain of SEQ ID NO: 412 (designed binder) MGSWFEFWDRLEAIWERLDALGGSEAELAAFEKEIAAFESELQAYKGKGNPEVEELRREAAIIREDLQAYRHN
8.4 | D domain of SEQ ID NO: 401 (designed binder) MGSWYEFYERLDAIEERLWALGGSEAELAAFEKEIAAFESELQAYKGKGNPEVEVLRDWAAWIREDLQAYRHN
5.5 | D domain of SEQ ID NO: 413 (designed binder) MGSWFEFEDRLEAIYQRLDALGGSEAELAAFEKEIAAFESELQAYKGKGNPEVEWLRDEAAWIRSDLQAYRHN
